Here are results for four molecules from US20220242952A1 (MorphoSys, published 2022).

Where “and” joins values, the source holds several entries; their conditions need not be identical. Equal entries are not always repeated.

In assay [1] the target is T1, CD19 (human, UniProt P15391 20-556).
T1 sequence: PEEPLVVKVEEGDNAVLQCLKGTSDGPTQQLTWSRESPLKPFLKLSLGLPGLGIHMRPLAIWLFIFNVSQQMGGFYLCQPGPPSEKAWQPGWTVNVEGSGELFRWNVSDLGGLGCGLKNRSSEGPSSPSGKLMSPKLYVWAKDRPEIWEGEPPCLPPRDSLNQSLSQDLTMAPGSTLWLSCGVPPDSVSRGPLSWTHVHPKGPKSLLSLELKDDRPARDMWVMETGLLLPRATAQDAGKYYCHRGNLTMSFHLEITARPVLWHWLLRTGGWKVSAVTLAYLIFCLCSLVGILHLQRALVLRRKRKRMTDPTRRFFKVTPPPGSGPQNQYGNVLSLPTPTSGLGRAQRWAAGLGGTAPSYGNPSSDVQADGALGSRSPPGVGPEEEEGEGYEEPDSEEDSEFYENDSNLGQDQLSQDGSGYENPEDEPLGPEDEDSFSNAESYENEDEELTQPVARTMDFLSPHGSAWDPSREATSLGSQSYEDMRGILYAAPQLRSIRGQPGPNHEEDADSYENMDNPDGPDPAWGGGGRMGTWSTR
The assay is described as follows: flow cytometry, QuantiBRITE PE quantitation, Toledo (DLBCL) cells.

The target in assay [2] is T1, CD19. The assay is described as follows: flow cytometry, QuantiBRITE PE quantitation, JVM-2 (MCL) cells.
The target in assay [3] is T1, CD19. In words: flow cytometry, QuantiBRITE PE quantitation, MEC-1 (CLL) cells.
Assay [4] has as its target CD20 (UniProt P11836). The assay is described as follows: flow cytometry, QuantiBRITE PE quantitation, Toledo (DLBCL) cells.
The target of assay [5] is CD20 (UniProt P11836). The assay is described as follows: flow cytometry, QuantiBRITE PE quantitation, JVM-2 (MCL) cells.
For assay [6], the target named is CD20 (UniProt P11836). The assay is described as follows: flow cytometry, QuantiBRITE PE quantitation, MEC-1 (CLL) cells.
Assay [7] has as its target CD20 (UniProt P11836). In words: cell-based or functional assay.
Assay [8] addresses T1, CD19. In words: cell-based or functional assay.

Chain of CD20 (P11836 whole entry): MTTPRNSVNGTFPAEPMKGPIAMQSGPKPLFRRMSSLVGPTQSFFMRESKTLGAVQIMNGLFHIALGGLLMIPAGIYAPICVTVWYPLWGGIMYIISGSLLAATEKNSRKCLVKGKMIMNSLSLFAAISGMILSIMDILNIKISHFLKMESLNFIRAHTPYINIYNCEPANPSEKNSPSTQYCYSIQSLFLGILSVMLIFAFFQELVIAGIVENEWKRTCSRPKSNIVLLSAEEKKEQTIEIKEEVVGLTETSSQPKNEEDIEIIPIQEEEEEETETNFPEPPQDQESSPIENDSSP

Consider “Biolegend CD19-PE (Biolegend #302208; clone HIB19) (antibody)”, for which the antibodies bound per cell (ABC) (antibodies bound per cell) stood at 35700 with CD19 [1], 26200 with CD19 [2] and 60900 with CD19 [3].

Turning to “Biolegend CD20-PE (Biolegend #302306; clone 2H7) (antibody)”, the antibodies bound per cell (ABC) (antibodies bound per cell) was 28000 with CD20 [4], 15500 in the assay with CD20 [5] and 71300 in the assay with CD20 [6].

For Rituximab (antibody), in the assay with CD20 [7], the % specific killing, ADCC with NK cells, JVM-2 cells, E:T 0.1:1, 10 ug/ml antibody turned out to be 0.5%; the % specific killing, ADCC with NK cells, JVM-2 cells, E:T 3:1 and 6:1, 10 ug/ml antibody is 39% and 48%; the % specific killing, ADCC with NK cells, MEC-1 cells, E:T 0.1:1, 10 ug/ml antibody turned out to be 3%; the % specific killing, ADCC with NK cells, Toledo cells, E:T 0.1:1, 10 ug/ml antibody was 3%. Also, in the assay with CD20 [7], the % specific killing, ADCC with NK cells, Toledo cells, the two higher E:T ratios, 10 ug/ml antibody turned out to be 60%.

B1: MOR00208 (antibody, human IgG1, kappa, V domains shown)
VH: EVQLVESGGGLVKPGGSLKLSCAASGYTFTSYVMHWVRQAPGKGLEWIGYINPYNDGTKYNEKFQGRVTISSDKSISTAYMELSSLRSEDTAMYYCARGTYYYGTRVFDYWGQGTLVTVSS
VL: DIVMTQSPATLSLSPGERATLSCRSSKSLQNVNGNTYLYWFQQKPGQSPQLLIYRMSNLNSGVPDRFSGSGSGTEFTLTISSLEPEDFAVYYCMQHLEYPITFGAGTKLEIKR
Turning to B1, in the assay with CD19 [8], the “% specific killing, ADCC with NK cells, Toledo cells, the two higher E:T ratios, 10 ug/ml antibody” value was roughly 60%; the “specific killing ratio compared to Rituximab, individual donor 296, JVM-2 cells, lowest E:T ratio” value was no more than 20 fold; the “specific killing ratio compared to Rituximab, individual donor 299, Toledo cells, lowest E:T ratio” value was no more than 30 fold; the “specific killing ratio normalized to Rituximab, JVM-2 cells, E:T 0.1:1, median of donors” value was found to be 5.3 fold. Further, in the assay with CD19 [8], the “specific killing ratio normalized to Rituximab, Toledo cells, E:T 0.1:1, median of donors” value was 2.5 fold and the “specific killing ratio over Rituximab, MEC-1 cells, E:T 0.1:1, average of 17 donors” value worked out at 1.6 fold.
